In paper PMC5415106:

Experiments:
[1] = target: GST-Dpb11-wild-type (budding yeast) (UniProt P47027); test: pull-down; 10 pmol GST-tagged Dpb11 with 32P-labelled protein, no DNA; GST-binding buffer (40 mM Tris-HCl pH 7.5, 100 mM NaCl, 0.1 mM EDTA, 10% glycerol, 0.1% Triton X-100, 1 mM DTT, 0.1 mg/ml BSA), 25°C 1 h; glutathione Sepharose, two washes; SDS-PAGE and phosphorimaging
[2] = target: GST-Dpb11-wild-type (budding yeast) (UniProt P47027); test: pull-down; as the GST pull-down without DNA, but in the presence of 10 pmol bubble-shaped DNA; 10 pmol GST-Dpb11, 32P-labelled RPA; 25°C 1 h, glutathione Sepharose
[3] = target: Mcm2-7 complex with a PKA tag at the N-terminus of Mcm2 [modified: 32P-phosphate on the PKA tag; 32P-phosphate on the PKA tag] [budding yeast]; test: GST pull-down, phosphorimaging; conditions: 10 pmoles GST-Dpb11, read off a plot
[4] = target: GST-Dpb11-m1,2,3,5,ΔC (budding yeast) (UniProt P47027); test: pull-down; 10 pmol GST-tagged Dpb11 with 32P-labelled protein, no DNA; GST-binding buffer (40 mM Tris-HCl pH 7.5, 100 mM NaCl, 0.1 mM EDTA, 10% glycerol, 0.1% Triton X-100, 1 mM DTT, 0.1 mg/ml BSA), 25°C 1 h; glutathione Sepharose, two washes; SDS-PAGE and phosphorimaging
Sequence of GST-Dpb11-m1,2,3,5,ΔC (budding yeast) (P47027 1-615 K463E/K469E/R538E/K549E): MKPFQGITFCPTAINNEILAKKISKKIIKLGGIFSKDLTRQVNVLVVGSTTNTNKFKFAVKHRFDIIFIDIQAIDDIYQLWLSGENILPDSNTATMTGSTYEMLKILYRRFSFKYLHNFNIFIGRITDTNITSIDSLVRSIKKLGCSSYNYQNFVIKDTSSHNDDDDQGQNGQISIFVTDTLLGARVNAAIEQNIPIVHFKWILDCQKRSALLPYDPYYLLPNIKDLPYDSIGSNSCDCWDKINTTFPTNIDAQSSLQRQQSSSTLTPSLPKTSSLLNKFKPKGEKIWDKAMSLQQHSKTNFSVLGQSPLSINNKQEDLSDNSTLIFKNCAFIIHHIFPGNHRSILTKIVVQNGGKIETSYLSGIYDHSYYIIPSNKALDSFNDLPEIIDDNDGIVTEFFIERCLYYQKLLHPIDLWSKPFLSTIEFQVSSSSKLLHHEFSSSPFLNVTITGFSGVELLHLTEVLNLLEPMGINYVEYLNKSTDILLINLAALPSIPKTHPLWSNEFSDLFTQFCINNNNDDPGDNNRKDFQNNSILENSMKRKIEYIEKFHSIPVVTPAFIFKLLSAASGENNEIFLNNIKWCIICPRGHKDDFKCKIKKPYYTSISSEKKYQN

[5] = target: GST-Dpb11-wild-type (budding yeast) (UniProt P47027); test: pull-down; GST-Dpb11 pull-down of CDK-phosphorylated RPA with single-stranded DNA substituted for bubble-shaped DNA; data not shown
[6] = target: GST-Dpb11-m1,2,3,5,ΔC (budding yeast) (UniProt P47027); test: pull-down; as the GST pull-down without DNA, but in the presence of 10 pmol bubble-shaped DNA; 10 pmol GST-Dpb11, 32P-labelled RPA; 25°C 1 h, glutathione Sepharose

Sequence of GST-Dpb11-wild-type (budding yeast) (P47027 whole entry): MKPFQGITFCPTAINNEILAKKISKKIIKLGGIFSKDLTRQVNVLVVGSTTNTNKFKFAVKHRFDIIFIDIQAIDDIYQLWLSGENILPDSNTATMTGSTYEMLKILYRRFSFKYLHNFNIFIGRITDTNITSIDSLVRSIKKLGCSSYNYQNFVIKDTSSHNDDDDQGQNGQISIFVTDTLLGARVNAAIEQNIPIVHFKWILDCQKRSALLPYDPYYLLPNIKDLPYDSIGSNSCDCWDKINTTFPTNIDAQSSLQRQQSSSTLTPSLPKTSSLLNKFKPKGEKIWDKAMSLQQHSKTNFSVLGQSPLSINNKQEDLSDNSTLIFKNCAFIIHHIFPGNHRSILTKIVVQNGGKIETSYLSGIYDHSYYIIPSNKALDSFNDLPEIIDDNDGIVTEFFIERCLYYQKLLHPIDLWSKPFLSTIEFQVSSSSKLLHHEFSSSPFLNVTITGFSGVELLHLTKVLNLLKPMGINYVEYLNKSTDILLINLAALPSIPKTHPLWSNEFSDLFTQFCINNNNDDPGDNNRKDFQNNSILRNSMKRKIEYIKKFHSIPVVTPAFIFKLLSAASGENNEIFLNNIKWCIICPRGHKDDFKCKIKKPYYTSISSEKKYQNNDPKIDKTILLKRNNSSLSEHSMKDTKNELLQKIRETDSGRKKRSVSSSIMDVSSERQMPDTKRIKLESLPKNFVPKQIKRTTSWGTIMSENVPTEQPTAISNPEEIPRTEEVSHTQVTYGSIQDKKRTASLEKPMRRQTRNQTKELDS

| percent pulled down [1] [%] | percent pulled down [2] [%] | response ([3]; 1 pmole Mcm2-7 input, parent: 0.26) [pmol] | response ([3]; 3 pmoles Mcm2-7 input, parent: 0.55) [pmol] | response ([3]; 10 pmoles Mcm2-7 input, parent: 1.3) [pmol] | percent pulled down [4] [%] | percent pulled down [5] [%] | percent pulled down [6] [%] | Substance |
| --- | --- | --- | --- | --- | --- | --- | --- | --- |
| 15 | 15 |  |  |  |  |  |  | PKA-RPA (not phosphorylated by CDK) (from UniProt P22336 1-621) (complex) |
|  |  | 0.25 | 0.55 | 1.3 |  |  |  | GST-Dpb11-wild-type mutant K463E; K469E; R538E; K549E [budding yeast] / Mcm2-7 complex with a PKA tag at the N-terminus of Mcm2 [modified: 32P-phosphate on the PKA tag; 32P-phosphate on the PKA tag] [budding yeast] chain 1 K463E, chain 1 K469E, chain 1 R538E, chain 1 K549E |
| 15 | 50 |  |  |  | 15 | 50 | 15 | CDK-phosphorylated RPA (PKA-tagged on Rfa1) (from UniProt P22336 1-621) (complex) |
